Results as given in IntAct's records for PubMed 19366670.

Molecular target: T1, asia_bpt4 asiA (UniProt P32267)
T1 sequence: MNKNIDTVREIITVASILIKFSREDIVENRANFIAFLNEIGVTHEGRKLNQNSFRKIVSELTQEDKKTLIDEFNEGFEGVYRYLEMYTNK

Substance | effect of a mutation on the interaction
DNA-directed RNA polymerase subunit beta (Escherichia coli (strain K12)) (from UniProt P0A8V2) G907K | decreasing interaction strength
DNA-directed RNA polymerase subunit beta (Escherichia coli (strain K12)) (from UniProt P0A8V2) I905A;F906A | decreasing interaction strength
